Laboratory results taken from the supplement of paper PMC9170038.

Tested on: MS2 coat protein
Assay: apparent KD of MS2 coat protein; designed switch direction (-1 OFF switch, 1 ON switch): -1; higher = weaker reporter binding
Summary of the method: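 For each design, the apparent KD is the median over clusters of curves fitted to normalised cluster fluorescence. Clusters held RNA switches with common flanks, transcribed on Illumina chips by stalled E. coli RNA polymerase. These were titrated with SNAP-549-labelled MS2 coat protein, doubling from 0.7 or 1.5 nM to 3 µM, without input, with 200 uM small-molecule ligand, or with an oligonucleotide input.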

[1] = input ligand: microRNA oligo, concentration not stated
[2] = Eterna round: R95, input ligand: microRNA oligo, concentration not stated
[3] = Eterna round: R95, input ligand: FMN 200 uM
[4] = Eterna round: R95, input ligand: none

Row | Sequence | apparent KD of MS2 coat protein (input ligand: FMN 200 uM) [nM] | apparent KD of MS2 coat protein [1] [nM] | apparent KD of MS2 coat protein (input ligand: none) [nM] | apparent KD of MS2 coat protein [2] [nM] | apparent KD of MS2 coat protein [3] [nM] | apparent KD of MS2 coat protein [4] [nM]
1 | ACAUGUCAUCGAGGAUAUUGUACACAUGAGGAUCACCCAUGUACUCGGUUGCUCUAGCAUGAGUUCGAGAAGGCGAUGUACAUU [Ex NG2 #81] (Eterna round: R96, puzzle: Exclusion NG 2) | 178 | 28.9 | 38.4 | – | – | –
2 | ACAUGUGUUGUAGGAUAUAGGAUACAUGAGGAUCACCCAUGUGGAUUCAUGUCAAUGGAAACGUCCUAGAAGGACGACAACAUG [Ex NG2 #22] (Eterna round: R96, puzzle: Exclusion NG 2) | 59.5 | 42.7 | 65 | – | – | –
3 | ACAUGUUGCGCAGGAUAUGGGACACAUGAGGAUCACCCAUGUGGUUACAUGUCUUACCAAGCGUCCCAGAAGGGUGUGAACAUG [Ex NG2 #32] (Eterna round: R96, puzzle: Exclusion NG 2) | 26 | 16.5 | 20.3 | – | – | –
4 | ACAUUCUGAGGAUAUGUGCGCACUGACAUGAGGAUCACCCAUGUCCGAAUGUCCGAGACGACAGAAGGCAGUGAAU [Eternabot (L2) Solution 72] (Eterna round: R97, puzzle: Exclusion 5) | 355 | – | 101 | – | – | –
5 | ACAUUGGUAGUGAGGAUAUCGGUGAGAUAGAAUGACGAGAAGGCACAUGAGGAUCACCCAUGUAAGAUUGGGCA [JR_BMEx4_Sub042] (Eterna round: R97, puzzle: Brourd's mod of Exclusion 4) | 286 | – | 251 | – | – | –
6 | ACCAAGCUAUGCACGUCUGACAUGAGGAUCACCCAUGUAGCCGGUCUCGGAAGGAGACAGGCUCCAGGUGGCUCAGA [Eternabot (Original) Solution 37] (Eterna round: R97, puzzle: Sensor, turn-off variant 1) | 683 | – | 667 | – | – | –
7 | ACCAGCAUACGGAGAUCCAACAUGAGGAUCACCCAUGUCUGGAAAGCUUUUUGCUUGUCUUAUCCUCCUCUGUGUGU [Design #5] (Eterna round: R97, puzzle: Sensor, turn-off variant 1) | 30.2 | – | 32.2 | – | – | –
8 | ACCGCUUCUGCAGGAUAUGGACAACAUGAGGAUCACCCAUGUGAUCUAUAAAGUAGUGGUGGCGUCCAGAAGGGCAGAUUAAGG [Maamabi] (Eterna round: R96, puzzle: Exclusion NG 2) | 197 | 48.2 | 96.3 | – | – | –
9 | ACCUCACAUGAGGAUCACCCAUGUCAGGAUAUACAAACCGUGAUAAGACACGGUCGUAGUAGAAGGGACUAUGG [Xerereonte] (puzzle: Exclusion 1) | – | – | – | 98.8 | – | –
10 | ACCUCACAUGAGGAUCACCCAUGUCAGGAUAUCUUUUAAAACACCAAUCGUGUCGCUGAGAGAAGGGACAUUAA [EX1 #23] (Eterna round: R97, puzzle: Exclusion 1) | 20.5 | – | 16 | – | – | –
11 | ACCUCACAUGAGGAUCACCCAUGUCAGGAUAUGUACCUGGCCAAGACAAAAGCCAGAAGCAGAAGGGACUGCGG [Enrionerdi] (puzzle: Exclusion 1) | – | – | – | 129 | 72.5 | 93.6
12 | ACCUGGUGAGGAUAUGUUGGGAAUGAUCCUUUCGGAUUGACACAGAAGGCACAUGAGGAUCACCCAUGUGGGUG [Eternabot (L1) Solution 70] (Eterna round: R97, puzzle: Exclusion 4) | 332 | – | 591 | – | – | –
13 | ACGAGCAGACGGAGAUCCAACAUGAGGAUCACCCAUGUCUGGAAAGCUUUUUGCUUGUCUUAUCCUCCUCUGUUAGC [Design #10] (Eterna round: R97, puzzle: Sensor, turn-off variant 1) | 12.4 | – | 11.9 | – | – | –
14 | ACGAUGACAGAAAGAAGUCAAAAGACAUGAGGAUCACCCAUGUAGGAUAUGGCUACGAAAAGUAGUCAGAAGGACUUGUCAUCA [Omei Exc(NG) 3 Av2] (Eterna round: R96, puzzle: Exclusion NG 3) | 13.1 | 9.48 | 14.3 | – | – | –
15 | ACGAUGACCGAAAGAUGUCAAAAGACAUGAGGAUCACCCAUGUAGGAUAUGGCUACGAAAAGUAGUCAGAAGGACAUGUCAUCA [Omei Exc(NG) 3 A] (Eterna round: R96, puzzle: Exclusion NG 3) | 15.1 | 12.3 | 14.8 | – | – | –
16 | ACGCCGCAAGGAUAUACUUGCGGUGAUGUUCGAGUUCUUCUACUUGAGGAUCACCCAAGUAGAAGGUGCGAUGG [jl-ex2.4.61 ViennaUCT mod] (Eterna round: R97, puzzle: Exclusion 2) | 13.7 | – | 13.8 | – | – | –
17 | ACGGGUAAGUAAGGAUAUCCAACAGGCUGAUUUCAGUCUGAACAUGAGGAUCACCCAUGUGGGUGGGAGAAGGUACUCUCCCGC [Atbienarza] (Eterna round: R96, puzzle: Exclusion NG 2) | 107 | 86.3 | 114 | – | – | –

Row | Sequence | apparent KD of MS2 coat protein (input ligand: FMN 200 uM) [nM] | apparent KD of MS2 coat protein [1] [nM] | apparent KD of MS2 coat protein (input ligand: none) [nM] | apparent KD of MS2 coat protein [2] [nM] | apparent KD of MS2 coat protein [3] [nM] | apparent KD of MS2 coat protein [4] [nM]
18 | ACGUACAAGCCGAUCCUAAACAUGAGGAUCACCCAUGUGCUCGUUUUGUAAAGUACUAUCACGAAAGUGAUAGUACA (Eterna round: R97, puzzle: Sensor, turn-off variant 1) | 114 | – | 122 | – | – | –
19 | ACGUGAUAUCUGUCGGUGGACAUGAGGAUCACCCAUGUAAGCUUUCUGCUCGUCUUAUAACCCGGUGACAGACCUUC [Diteerquus] (puzzle: Sensor v3, turn-off variant 1) | – | – | – | 310 | 45.3 | 56.9
20 | ACUAGAUGAGGAUAUACACAUUUUAGUGUUCCUCUAGAUUAACAUGAGGAUCACCCAUGUAGAAGGCAUCAAUU [Exclusion 2 - 11] (Eterna round: R96, puzzle: Exclusion 2) | 294 | 52.8 | 63 | – | – | –
21 | ACUAGAUGAGGAUAUACACAUUUUAGUGUUCCUCUAGAUUAACAUGAGGAUCACCCAUGUAGAAGGCAUCAAUU [Exclusion 2 - 11] (puzzle: Exclusion 2) | – | – | – | 57.8 | – | –
22 | ACUAGGAGAUUAGGAUAUCUAUCUCACAUGAGGAUCACCCAUGUAUAAGCGUCCUAAAGGUGGAUGGAGAAGGGAUGUCCGAAG [Eternabot solution 13] (Eterna round: R96, puzzle: Exclusion NG 2) | 14.1 | 13.8 | 17.5 | – | – | –
23 | ACUAGGCGAGGAUAUACAUGCUUAACGCAGGAAAAGCUGCGACAUGAGGAUCACCCAUGUAGAAGGCGCAAAUA [Xege] (Eterna round: R96, puzzle: Exclusion 2) | 78.1 | 14.6 | 20 | – | – | –
24 | ACUAGGCGAGGAUAUACAUGCUUAACGCAGGAAAAGCUGCGACAUGAGGAUCACCCAUGUAGAAGGCGCAAAUA [Xege] (puzzle: Exclusion 2) | – | – | – | 15.4 | – | –
25 | ACUCCUCCUGUUAGGAUAUGCAUCGGGCUUCCGCAGCAGAAGGAACAUGAGGAUCACCCAUGUCAAAUAAAAUC (Eterna round: R97, puzzle: Brourd's mod of Exclusion 4) | 243 | – | 26.3 | – | – | –
26 | ACUCCUCCUGUUAGGAUAUGCAUCGGGCUUCCGCAGCAGAAGGAACAUGAGGAUCACCCAUGUCAAAUAAAAUC [Inxebexe] (Eterna round: R96, puzzle: Brourd's mod of Exclusion 4) | 153 | 20.7 | 26.9 | – | – | –
27 | ACUCCUCCUGUUAGGAUAUGCAUCGGGCUUCCGCAGCAGAAGGAACAUGAGGAUCACCCAUGUCAAAUAAAAUC [Inxebexe] (puzzle: Brourd's mod of Exclusion 4) | – | – | – | 18.9 | – | –
28 | ACUGGAGCAGGAUAUACAUUCGUGCUUCGGCACGUAAGAUCACAUGAGGAUCACCCAUGUAGAAGGGCUCCAGU [E2/5-D1] (Eterna round: R97, puzzle: Exclusion 2) | 970 | – | 122 | – | – | –
29 | ACUGUUGCAGGAUAUAUGGUGCUAGACAUGAGGAUCACCCAUGUAGGCCUUGUCUAGCAGGUAGAAGGGCACCCAC [Eternabot (L1) Solution 94] (Eterna round: R97, puzzle: Exclusion 5) | 503 | – | 224 | – | – | –
30 | ACUUACUGAGGAUAUACAUAGAUUUACAUGAGGAUCACCCAUGUUCCUCUAUGUAUAAAUGUAGAAGGCAGAAGUU [Mat - Exclusion 5 - JL Mod - D56] (Eterna round: R97, puzzle: Exclusion 5) | 107 | – | 21.5 | – | – | –
31 | ACUUAUAGAGGAUAUACAGAAUAUUACAUGAGGAUCACCCAUGUUCUUCAAUGUAUAUAUGUAGAAGGCUAAGGAA [JL-ex5-4.22 Malcolm mod] (Eterna round: R97, puzzle: Exclusion 5) | 252 | – | 88.8 | – | – | –
32 | ACUUAUCAUGUAGGAUAUGCGUGGCGAAGCUAUGCAGAAGGACAUGAGGAUCACCCAUGUUUUAGCGUCUGCGUACAGAUGCGU [JL ENG1 1.45] (Eterna round: R96, puzzle: Exclusion NG 1) | – | 39 | – | – | – | –
33 | AGAAAGCAAGGAUAUACGAGGAGAAGGUGGAAAGUUAAAGGACAUGAGGAUCACCCAUGUAGAAGGUGCGAGAA [JR_Exclu2_Sub043] (puzzle: Exclusion 2) | – | – | – | 46.2 | 79.3 | 55.4
34 | AGAAAGGAAGGAUAUACAAGAAAGCCGGGCAACGUCUCAGAACAUGAGGAUCACCCAUGUAGAAGGUCCAGGAA [Tisoiste] (puzzle: Exclusion 2) | – | – | – | 32.6 | 92.3 | 32.8
